According to patent publication US20200408770A1 (NITTO BOSEKI, published 2020):

What was measured:
[1] = biological target: T1, Ki-67 antigen (MKI67: Marker Of Proliferation Ki-67) (human, UniProt P46013 1-3256); assay: flow cytometry, formalin-fixed T47D cells, thrombin treatment done; share of nuclei above the 95 percentile of the isotype control
T1 construct: Formalin-crosslinked and possibly partly cleaved; also called K-67

[2] = biological target: T1, Ki-67 antigen (MKI67: Marker Of …); assay: flow cytometry, formalin-fixed MDA-MB-231 cells, thrombin treatment done; share of nuclei above the 95 percentile of the isotype control
[3] = biological target: T1, Ki-67 antigen (MKI67: Marker Of …); assay: flow cytometry, formalin-fixed SKBr3 cells, thrombin treatment not done; share of nuclei above the 95 percentile of the isotype control
[4] = biological target: T1, Ki-67 antigen (MKI67: Marker Of …); assay: flow cytometry, formalin-fixed T47D cells, thrombin treatment not done; share of nuclei above the 95 percentile of the isotype control
[5] = biological target: T1, Ki-67 antigen (MKI67: Marker Of …); assay: flow cytometry, formalin-fixed SKBr3 cells, thrombin treatment done; share of nuclei above the 95 percentile of the isotype control
[6] = biological target: T1, Ki-67 antigen (MKI67: Marker Of …); assay: flow cytometry, formalin-fixed MDA-MB-231 cells, thrombin treatment not done; share of nuclei above the 95 percentile of the isotype control

T1 sequence (P46013 whole entry): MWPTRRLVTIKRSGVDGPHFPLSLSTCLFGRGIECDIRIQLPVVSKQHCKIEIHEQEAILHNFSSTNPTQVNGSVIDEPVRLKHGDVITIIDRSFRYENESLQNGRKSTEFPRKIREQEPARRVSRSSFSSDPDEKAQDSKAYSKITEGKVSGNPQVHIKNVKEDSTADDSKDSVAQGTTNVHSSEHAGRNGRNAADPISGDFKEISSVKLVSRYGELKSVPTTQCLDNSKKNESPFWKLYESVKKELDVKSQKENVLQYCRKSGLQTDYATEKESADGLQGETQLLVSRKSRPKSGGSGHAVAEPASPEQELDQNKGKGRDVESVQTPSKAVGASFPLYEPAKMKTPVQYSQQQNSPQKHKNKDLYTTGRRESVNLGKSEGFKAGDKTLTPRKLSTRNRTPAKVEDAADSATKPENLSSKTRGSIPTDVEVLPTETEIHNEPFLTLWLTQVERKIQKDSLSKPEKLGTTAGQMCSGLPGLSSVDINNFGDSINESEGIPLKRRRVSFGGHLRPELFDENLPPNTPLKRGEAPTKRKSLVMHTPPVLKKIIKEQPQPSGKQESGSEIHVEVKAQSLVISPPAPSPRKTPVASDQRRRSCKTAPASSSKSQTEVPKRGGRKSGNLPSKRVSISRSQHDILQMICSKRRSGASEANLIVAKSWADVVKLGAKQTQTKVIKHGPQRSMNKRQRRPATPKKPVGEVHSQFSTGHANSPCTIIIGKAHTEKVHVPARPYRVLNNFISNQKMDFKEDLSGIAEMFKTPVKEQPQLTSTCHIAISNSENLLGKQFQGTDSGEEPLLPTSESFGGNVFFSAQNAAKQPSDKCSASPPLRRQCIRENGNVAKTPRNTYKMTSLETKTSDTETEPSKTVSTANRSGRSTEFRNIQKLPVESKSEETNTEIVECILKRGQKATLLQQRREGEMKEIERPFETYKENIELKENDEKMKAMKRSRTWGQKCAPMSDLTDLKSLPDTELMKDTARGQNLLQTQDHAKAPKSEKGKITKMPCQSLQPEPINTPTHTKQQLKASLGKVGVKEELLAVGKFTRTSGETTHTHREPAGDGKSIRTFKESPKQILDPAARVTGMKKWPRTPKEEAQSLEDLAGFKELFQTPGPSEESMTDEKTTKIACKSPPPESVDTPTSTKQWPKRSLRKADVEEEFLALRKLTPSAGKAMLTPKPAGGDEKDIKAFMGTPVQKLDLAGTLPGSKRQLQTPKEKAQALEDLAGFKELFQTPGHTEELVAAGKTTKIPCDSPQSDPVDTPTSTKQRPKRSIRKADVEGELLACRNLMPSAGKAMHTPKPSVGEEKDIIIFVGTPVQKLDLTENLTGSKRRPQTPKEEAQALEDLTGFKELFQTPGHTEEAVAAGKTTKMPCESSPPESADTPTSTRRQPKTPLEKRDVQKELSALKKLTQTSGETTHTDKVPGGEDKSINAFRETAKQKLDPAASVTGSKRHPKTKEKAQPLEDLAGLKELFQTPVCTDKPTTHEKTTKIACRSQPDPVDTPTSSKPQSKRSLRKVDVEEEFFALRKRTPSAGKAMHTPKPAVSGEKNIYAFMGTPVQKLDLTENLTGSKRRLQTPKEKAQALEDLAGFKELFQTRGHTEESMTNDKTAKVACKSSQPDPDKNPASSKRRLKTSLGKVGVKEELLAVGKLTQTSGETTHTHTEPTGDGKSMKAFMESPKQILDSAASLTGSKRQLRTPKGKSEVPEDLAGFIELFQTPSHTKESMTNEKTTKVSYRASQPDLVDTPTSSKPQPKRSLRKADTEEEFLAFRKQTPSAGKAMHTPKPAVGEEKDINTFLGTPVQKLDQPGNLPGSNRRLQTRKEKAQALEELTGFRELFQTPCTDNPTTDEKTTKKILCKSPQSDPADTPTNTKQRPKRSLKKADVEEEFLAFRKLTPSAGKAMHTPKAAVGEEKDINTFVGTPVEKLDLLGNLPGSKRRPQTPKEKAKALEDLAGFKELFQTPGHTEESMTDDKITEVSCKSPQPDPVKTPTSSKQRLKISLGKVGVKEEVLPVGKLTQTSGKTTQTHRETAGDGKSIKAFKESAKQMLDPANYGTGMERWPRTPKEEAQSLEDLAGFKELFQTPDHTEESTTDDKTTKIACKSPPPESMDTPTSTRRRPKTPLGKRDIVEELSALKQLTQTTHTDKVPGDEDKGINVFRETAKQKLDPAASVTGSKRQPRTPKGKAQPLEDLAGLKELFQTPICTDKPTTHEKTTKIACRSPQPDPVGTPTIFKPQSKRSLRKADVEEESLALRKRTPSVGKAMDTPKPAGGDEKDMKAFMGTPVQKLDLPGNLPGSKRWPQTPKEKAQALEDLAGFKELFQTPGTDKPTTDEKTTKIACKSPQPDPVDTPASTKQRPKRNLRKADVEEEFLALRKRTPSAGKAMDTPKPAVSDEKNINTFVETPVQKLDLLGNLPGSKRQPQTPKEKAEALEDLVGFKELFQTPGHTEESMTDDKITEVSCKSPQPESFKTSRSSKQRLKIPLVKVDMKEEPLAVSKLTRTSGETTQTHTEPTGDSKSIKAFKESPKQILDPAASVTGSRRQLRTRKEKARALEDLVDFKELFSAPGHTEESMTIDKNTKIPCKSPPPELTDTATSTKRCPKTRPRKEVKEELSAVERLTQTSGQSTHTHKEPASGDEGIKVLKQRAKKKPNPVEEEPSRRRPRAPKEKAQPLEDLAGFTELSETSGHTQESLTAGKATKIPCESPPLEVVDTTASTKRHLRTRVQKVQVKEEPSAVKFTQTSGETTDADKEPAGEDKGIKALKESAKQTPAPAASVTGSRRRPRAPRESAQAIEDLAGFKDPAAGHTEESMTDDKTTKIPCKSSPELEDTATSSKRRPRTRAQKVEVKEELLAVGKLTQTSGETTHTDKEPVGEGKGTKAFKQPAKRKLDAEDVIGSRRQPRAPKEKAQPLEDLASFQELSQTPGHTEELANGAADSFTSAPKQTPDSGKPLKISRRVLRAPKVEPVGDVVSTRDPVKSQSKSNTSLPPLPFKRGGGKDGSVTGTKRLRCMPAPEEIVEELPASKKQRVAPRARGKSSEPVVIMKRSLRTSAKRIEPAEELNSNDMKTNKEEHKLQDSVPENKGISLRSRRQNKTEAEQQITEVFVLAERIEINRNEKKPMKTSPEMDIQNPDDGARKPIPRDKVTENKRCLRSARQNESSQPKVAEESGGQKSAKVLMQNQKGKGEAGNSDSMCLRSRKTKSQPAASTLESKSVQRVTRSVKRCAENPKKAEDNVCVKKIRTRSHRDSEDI

Ki-67-positive ratio [1]: 37.3
Ki-67-positive ratio [2]: 39.9
Ki-67-positive ratio [3]: 6.52
Ki-67-positive ratio [4]: 24.3
Ki-67-positive ratio [5]: 19.8
Ki-67-positive ratio [6]: 33.1
B1: Ki-67 antibody (Dako, clone: MIB-1, mouse monoclonal antibody) (antibody, V domains shown)
VH: EVQLQESGPGILQPSQTLSLTCSFSSYHFGDIVGWIRQPSGKGLEWLAHNWKDINDNKYNTALKSRLTISKDTSNNQVFLKIASVDTADTATYYCASYGHYDHWGQGSTLTVSS
VL: DIVMTQSPLSLPVSLGDQASISCRSSSQSVINGQSNYLEWYLQKPGQSPKLLIYLVSNRFSGVPDRFSGSGSGTDFTLKISRVEAEDLGVYYCFQSGVHWPTFGGGTKL
